Data as given in patent US7795386B2, “Peptides comprising an isoDGR motif” (Molmed SpA, priority 2004, dated 2010).

Assays:
αvβ3 integrin [1] = biological target: T1, αvβ3 integrin (Homo sapiens, UniProt P05106+P06756); assay: competitive binding of biotinylated NGR-TNF to αvβ3 coated plates; details: FN-I5 incubated at 37° C. in DMEM
T1 construct: purchased Immunological Sciences
Method: Biotinylated NGR-TNF (4 μg/ml) was mixed with different amount of the indicated peptides and added to αvβ3 coated plates. Binding was detected as described in Materials and Methods. IC50 was determined by nonlinear regression analysis using the GraphPad Prism software. The kinetics of deamidation of FN-I5 was determined by plotting the inhibitory concentration (IC50) versus the incubation times. Bars represent the confidence intervals for each determined IC50.
(§1) Human αvβ3, αvβ5, α5β1 and α1β1 integrins solutions, 0.5-2 μg/ml in phosphate buffered saline with Ca^2+ and Mg^2+ (DPBS, Cambrex), were added to 96-well polyvinylchloride microtiter plates (50 μl/well) and left to incubate overnight at 4° C. All subsequent steps were carried out at room temperature. […] Bound peroxidase was detected by adding o-phenylendiammine chromogenic substrate.
(§2) Binding of biotinylated peptides (CNGRC (SEQ ID NO: 6)-TNF1-11, CARAC (SEQ ID NO: 36)-TNF1-11 and FN-I5) to purified integrins was studied using streptavidin-peroxidase conjugate complexes. Complexes were prepared by mixing various quantities (0.5-1 μg) of heat-treated biotinylated peptides in DPBS containing 3% BSA with 0.03 units of streptavidinperoxidase (binding capacity: 1 μg of biotin/unit of streptavidin-peroxidase) (final volume 15 μl). […] After washing with DPBS, bound peroxidase was detected by chromogenic reaction as described above. […]

L-M mouse fibroblasts = assay: standard cytolytic assay with L-M mouse fibroblasts; assay type: cell-based; details: for Cytolytic Activity: in vitro, L-M murine fibroblasts
Excerpt: Protein purity and identity were checked by SDS-PAGE, electrospray mass spectrometry and gel-filtration chromatography.
The cDNA coding for DGR-TNF (mouse TNF fused with the C-terminus of CDGRCG (SEQ ID NO: 24)) was obtained by PCR on NGR-TNF plasmid, using the following primers: 5′ […] 3′ (SEQ ID NO: 43) (5′ primer); 5′ […] ′3 (SEQ ID NO: 44) (3′ primer). Both primers were designed to allow the directional cloning into a pET101/D-TOPO plasmid expression kit (Invitrogen). The underlined sequence in 5′ primer contains the sequence necessary to enable the directional cloning and the initial translation codon whereas the 3′ primer contains the stop codon (underlined). The PCR reaction and the cloning procedure were performed as recommended by the manufacturer's instruction. […] The column was washed extensively 100 mM Tris-HCl buffer containing pH 8.0, loaded with DGR-TNF crude extract, diluted in 20 mM Tris-HCl buffer conatining 2 mM EDTA pH 8.0, and desorbed by elution with 7 M urea, 100 mM Tris-HCl, pH 8.0. DGR-TNF was then refolded as described (1). Briefly, the denatured products were dialyzed against 2.33 M urea, 100 mM Tris-HCl, pH 8.0 at 4° C. (140 min), followed by 1.55 M urea, 100 mM Tris-HCl, pH 8.0 (140 min), and 1 M urea, 100 mM Tris-HCl, pH 8 (140 min). Finally the products were dialyzed against 100 mM Tris-HCl, pH 8.0 (48 h). The products were centrifuged at 13000×g (10 min, 4° C.) and concentrated by ultra-filtration through a 10 KDa cut-off filter. All solutions used in the purification and refolding steps were prepared with sterile and endotoxin-free water (S.A.L.F. Laboratorio Farmacologico SpA, Bergamo, Italy). Protein concentration was measured using the BCA Protein Assay Reagent (Pierce, Rockford, Ill.). Protein purity and identity were checked by SDS-PAGE, electrospray mass spectrometry (ESI-MS) and analytical gel-filtration chromatography.

αvβ3 integrin [2] = biological target: T1, αvβ3 integrin; assay: direct ELISA binding to purified integrin adsorbed on microtiterplates
Method: (A) Binding of heat-treated CNGRC-TNF and TNF to solid phases coated with purified human integrins. Single concentration (5 μg/ml) or various concentrations (inset) of CNGRC-TNF and TNF were used. Binding was detected with anti-TNF antibodies as described in Materials and Methods.
(B) Binding of biotinylated CNGRC-TNF1-11, CARAC-TNF1-11 and FN-I5 (complexed with streptavidin-peroxidase) to purified human integrins. Binding was detected by chromogenic reaction with o-phenylendiammine.
as §1, with “C.” for “C. All subsequent steps were carried out at room temperature.”
as §2

EA.hy926 cells [3] = assay: EA.hy926 cell adhesion assay on coated microtiter plates; assay type: cell-based, human; details: for EA.hy926 cell adhesion to coated product after heat-treatment: 0.1 M ammonium bicarbonate buffer, pH 8.5, 16 h at 37° C.
Method: Adhesion of EA.hy926 cells to microtiter plates coated with various peptides and proteins before and after accelerated aging. Accelerated aging was performed by peptide incubation in 0.1 M ammonium bicarbonate buffer, pH 8.5, for 16 h at 37° C. (“heat-treatment”). Adhesion to: recombinant FN-I4-5 or control protein (FN-I4-5 (SGS)) (A), synthetic FN-I5 (B), recombinant CNGRC-TNF, CNGRC-TNF1-11 and control CARAC-TNF1-11 peptide (C), CDGRC-TNF (D). Heat-treated (37° C.) and untreated (−20° C.) products were adsorbed onto the plastic surface of microtiter wells (overnight at 4° C.). Microphotograph of wells coated with 30 μg/ml of heat-treated FN-I5 or BSA (B, right) or with 10 μg/ml of recombinant CNGRC-TNF or CDGRC-TNF (C, right), ×200. Cell adhesion assay was carried out as described in Materials and Methods. The TNF fusion constructs, including the TNF1-11 fusion constructs, were made as described Materials and Methods, and include a “G” linker.
(§3) Untreated and “heat treated” fibronectin fragments, peptides and peptide-TNF conjugates were diluted at the desired concentration with 150 mM sodium chloride, 50 mM sodium phosphate, pH 7.3, and added to 96-well polyvinyl chloride microtiter plates (Falcon, Becton Dickinson). After overnight incubation at 4° C., the plates were washed, seeded with EA.hy926 cell in DMEM containing 0.1% BSA (40000 cells/well) and left to incubate for 2-3 h at 37° C., 5% CO2. Adherent cells were fixed and stained with crystal violet as described (Curnis et al., 2005).

[4] = isoaspartate (isoAsp) quantification, ISOQUANT enzymatic assay; details: for isoAsp (%): pmol of isoAsp/pmol of peptide (%)
Excerpt: IsoAsp content in untreated and “heat treated” CNGRC (SEQ ID NO: 6)—TNF and peptides was quantified by using the ISOQUANT™ Isoaspartate Detection Kit (Promega).

[5] = bolus, humans (Fraker et al., 1995); cited from earlier work
EA.hy926 cells [6] = assay: PIMT treatment of coated products followed by EA.hy926 cell adhesion assay; assay type: cell-based, human; details: PIMT 16 h at 37° C.
Method: Microtiterplates were coated with heat-treated FN-I5 or NGR-TNF (A), or with natural FN-30 KDa, FN-45 KDa or retronectin (RN) (CNGRC disclosed as SEQ ID NO: 6) (B). The adsorbed proteins were then treated with PIMT enzyme for 16 h at 37° C. After incubation the enzyme solution was removed by washing. EA.hy926 cell adhesion assay was then performed as described in Materials and Methods.
The effect of protei nL-isoAsp/D-As pO-methyltransferase (PIMT) on the pro-adhesive properties of different fragments was investigated as follows: microtiter plates were coated with various products as described above and washed with 0.9% sodium chloride. Each well was then filled with 45 μl of a solution containing 0.02 mM S-adenosyl-L-methionine in 150 mM sodium chloride, 50 mM sodium phosphate buffer, pH 6.8, and 5 μl of PIMT solution (from the Isoquant Isoaspartate Detection kit, Promega) (final volume 50 μl/well) and incubated at 37° C. for 16 h. After incubation the plates were washed with 0.9% sodium chloride and cell adhesion assay was performed as described above.

[7] = tested on: EA.hy926 cell adhesion to vitronectin; assay: inhibition of EA.hy926 cell adhesion to vitronectin; assay type: cell-based, human; details: vitronectin 3 μg/ml coated
Method: (A) Inhibition of EA.hy926 cell adhesion to vitronectin by heat-treated FN-I5. Vitronectin (3 μg/ml) was adsorbed to microtiter plate and cell adhesion assay was performed as described in Materials and Methods.
as §3

RMA lymphoma = RMA lymphoma tumor growth in mice, heat-treated FN-I5; assay type: in vivo, mouse; details: 200 μg i.p. daily from day 4; p=0.0003 at day 14
Method: (B) Anti-tumor effects of repeated administration of “heat-treated” FN-I5 to RMA-tumor bearing mice. Animals (5/group) were treated with 200 μg of “heat-treated” FN-I5 (i.p.) at the indicated times (arrows) starting 4 days after tumor implantation. * p=0.0003 at day 14, statistical analysis by two tailed t-test.
Studies on animal models were approved by the Ethical Committee of the San Raffaele H Scientific Institute and performed according to the prescribed guidelines. C57BL/6N mice (Charles River Laboratories, Calco, Italy) weighing 16-18 g were challenged with subcutaneous injection in the left flank of 7×10^4 RMA living cells; 4 days later, the mice were treated daily with 200 μg of heat-treated FN-I5 (100 μl) in 0.9% sodium chloride (i.p.). Tumor growth was monitored by measuring the tumors with calipers as previously described (Gasparri et al., 1999). Animals were sacrificed before the tumors reached 1.0-1.3 cm in diameter. Tumor sizes are shown as mean±SE (5 animals/group).

T1 sequence (P06756 31-889 limits assumed): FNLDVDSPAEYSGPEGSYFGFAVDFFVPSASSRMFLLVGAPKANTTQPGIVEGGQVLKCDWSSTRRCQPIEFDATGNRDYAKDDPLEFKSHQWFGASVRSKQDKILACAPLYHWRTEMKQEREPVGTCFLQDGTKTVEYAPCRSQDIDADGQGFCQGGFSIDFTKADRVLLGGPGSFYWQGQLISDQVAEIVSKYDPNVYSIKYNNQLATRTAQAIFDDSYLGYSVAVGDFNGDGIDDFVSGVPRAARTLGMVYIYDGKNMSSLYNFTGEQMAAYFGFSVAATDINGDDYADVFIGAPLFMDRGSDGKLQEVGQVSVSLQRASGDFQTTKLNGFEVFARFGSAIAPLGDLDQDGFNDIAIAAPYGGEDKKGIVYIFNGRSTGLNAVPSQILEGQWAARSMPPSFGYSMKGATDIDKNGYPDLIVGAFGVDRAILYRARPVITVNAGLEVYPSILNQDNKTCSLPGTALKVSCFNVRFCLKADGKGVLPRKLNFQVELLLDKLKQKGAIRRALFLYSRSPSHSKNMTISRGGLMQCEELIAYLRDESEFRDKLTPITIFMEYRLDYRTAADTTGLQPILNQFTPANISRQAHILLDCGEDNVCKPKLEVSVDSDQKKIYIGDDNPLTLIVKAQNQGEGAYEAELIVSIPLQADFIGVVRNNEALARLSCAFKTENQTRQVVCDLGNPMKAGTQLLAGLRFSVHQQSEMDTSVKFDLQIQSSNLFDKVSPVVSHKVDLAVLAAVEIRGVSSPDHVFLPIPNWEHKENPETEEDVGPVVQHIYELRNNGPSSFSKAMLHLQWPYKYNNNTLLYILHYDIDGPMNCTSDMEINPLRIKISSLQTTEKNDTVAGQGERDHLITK
T1 sequence (P06756 891-1048 partner limits assumed): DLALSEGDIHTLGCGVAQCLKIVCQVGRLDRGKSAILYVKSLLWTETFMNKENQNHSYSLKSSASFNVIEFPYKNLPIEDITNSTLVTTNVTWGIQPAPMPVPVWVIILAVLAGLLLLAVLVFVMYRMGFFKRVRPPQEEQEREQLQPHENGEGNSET
T1 sequence (P05106 27-788): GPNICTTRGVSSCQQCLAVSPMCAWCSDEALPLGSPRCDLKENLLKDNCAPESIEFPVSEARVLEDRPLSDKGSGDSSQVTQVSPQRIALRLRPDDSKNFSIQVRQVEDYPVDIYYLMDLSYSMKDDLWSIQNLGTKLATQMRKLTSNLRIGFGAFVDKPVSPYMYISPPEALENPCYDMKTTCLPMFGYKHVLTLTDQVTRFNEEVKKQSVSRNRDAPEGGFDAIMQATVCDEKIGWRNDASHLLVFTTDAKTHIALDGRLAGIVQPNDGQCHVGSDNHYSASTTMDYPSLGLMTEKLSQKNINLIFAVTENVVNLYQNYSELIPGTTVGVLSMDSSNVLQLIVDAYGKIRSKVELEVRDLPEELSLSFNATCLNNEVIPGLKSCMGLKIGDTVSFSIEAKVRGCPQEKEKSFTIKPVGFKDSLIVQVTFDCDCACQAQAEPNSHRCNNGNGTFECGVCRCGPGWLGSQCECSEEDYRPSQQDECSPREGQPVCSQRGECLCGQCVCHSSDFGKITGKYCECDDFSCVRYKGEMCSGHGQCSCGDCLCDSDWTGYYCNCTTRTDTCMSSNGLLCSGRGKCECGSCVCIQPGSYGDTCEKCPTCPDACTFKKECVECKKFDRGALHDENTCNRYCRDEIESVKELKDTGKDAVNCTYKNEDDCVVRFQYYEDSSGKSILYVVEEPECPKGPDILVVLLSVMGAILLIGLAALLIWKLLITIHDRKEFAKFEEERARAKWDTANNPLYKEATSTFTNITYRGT

With “FN-I5: synthetic peptide, 5th type I repeat of human fibronectin, residues 230-274, additional N-terminal acetyl-glycine, Glu250 in place of Asp250” the “incubation time to maximal competitive binding activity” value (αvβ3 integrin [1]) was 24 to 48 h.

With “TNF: murine TNF by recombinant DNA technology; in b159 bolus TNF in humans (literature) [reference compound]” the “Cytolytic Activity” value (L-M mouse fibroblasts) was 8 × 10^8 U/mg, the “binding to αvβ3” value (αvβ3 integrin [2]; heat-treated products, in words) was “No binding” and the “EA.hy926 cell adhesion to coated product after heat-treatment” value (EA.hy926 cells [3]) was “No adhesion”. For the same molecule, the “EA.hy926 cell adhesion to coated product” value (EA.hy926 cells [3]; before heat treatment) was “No adhesion”, the “isoAsp (%)” value [4] was 2.6% and the maximum tolerated dose [5] was 218-410 μg/m^2.

With “heat-treated FN-I5: FN-I5 incubated in 0.1 M ammonium bicarbonate buffer, pH 8.5, 16 h at 37° C. (deamidated)” the “effect of PIMT on pro-adhesive activity” value (EA.hy926 cells [6]) was “almost completely inhibited”, the “inhibition of adhesion of EA.hy926 cells to vitronectin” value [7] was “could inhibit” and the “tumor growth in RMA lymphoma bearing mice” value (RMA lymphoma) was “significantly inhibited tumor growth”.

B1: Cys-Asn-Gly-Arg-Cys-Gly-(SEQ ID NO: 7)TNF (protein)
chain: CNGRCGLRSSSQNSSDKPVAHVVANHQVEEQLEWLSQRANALLANGMDLKDNQLVVPADGLYLVYSQVLFKGQGCPDYVLLTHTVSRFAISYQEKVNLLSAVKSPCPKDTPEGAELKPWYEPIYLGGVFQLEKGDQLSAEVNLPKYLDFAESGQVYFGVIAL
notes: murine TNF fused with the C-terminus of CNGRCG, recombinant
In the case of B1, the “cytolytic activity after heat treatment” value (L-M mouse fibroblasts; 0.1 M ammonium bicarbonate buffer, pH 8.5, 37° C., 4 h of treatment) is reported as “no loss of cytolytic activity”, the “Cytolytic Activity” value (L-M mouse fibroblasts) is reported as 2.96 (±0.56)×10^8 U/mg and the “Cytolytic Activity” value (L-M mouse fibroblasts; listed as NGR-TNF) is reported as 2.9 × 10^8 U/mg. For the same molecule, the “binding to αvβ3 before heat treatment” value (αvβ3 integrin [2]; untreated, data not shown) was “to a lower extent”, the “EA.hy926 cell adhesion to coated product after heat-treatment” value (EA.hy926 cells [3]) was “increased cell adhesion” and the isoAsp content after heat treatment ([4]; 0.1 M ammonium bicarbonate pH 8.5, 16 h, 37° C.) was > 0.5 mol isoAsp/mol CNGRC-TNF subunit. For the same molecule, the “isoAsp (%)” value [4] was 29.8%.

B2: heat-treated CNGRC-TNF: CNGRC-TNF incubated in 0.1 M ammonium bicarbonate buffer, pH 8.5, 16 h at 37° C. (protein)
chain: CNGRCGLRSSSQNSSDKPVAHVVANHQVEEQLEWLSQRANALLANGMDLKDNQLVVPADGLYLVYSQVLFKGQGCPDYVLLTHTVSRFAISYQEKVNLLSAVKSPCPKDTPEGAELKPWYEPIYLGGVFQLEKGDQLSAEVNLPKYLDFAESGQVYFGVIAL
For B2, the “effect of PIMT on pro-adhesive activity” value (EA.hy926 cells [6]) was “almost completely inhibited”.
